In patent publication US20210348149A1 (Alexion, published 2021):

Biological target: T1, r-Antidote (two-chain polypeptide, SEQ ID NO: 3); processed product of the precursor SEQ ID NO: 2 after … (human, UniProt P00742 80-179); P00742 235-488, in certain production batches: glycosylation at Thr249; in certain production batches: glycosylation at Ser56, Ser72, Ser76 and Thr82; (3R)-3-hydroxyAsp at Asp29)
T1 construct: Light and heavy chain are joined by a disulfide bond, Cys98 of the light chain to Cys108 of the heavy chain; also called fXa antidote; fXa derivative
Test: affinity chromatography with immobilised STI ligand (Example 2)
Method: An affinity chromatograph was developed for high-volume extraction of the antidote. The affinity ligand included Kunitz trypsin inhibitor (21 kDa; pI=4.5) extracted from whole soybean or flour. The soybean trypsin inhibitor (STI) forms 1:1 complex with the antidote. A non-competitive inhibitor elution condition was identified for scalability and compatibility, which included 25 mM Na-acetate, 1M Arginine, at pH 5.2.
Affinity column chromatography was performed using Capto STI resin at ambient temperature. During the load phase, the product bound to the resin while contaminants flew through. The product was recovered by disrupting protein interactions with a high concentration of arginine in the elution buffer. Prior to use, the column was rinsed with water for injection (WFI), cleaned with 100 mM Phosphoric Acid pH 3.0, and rinsed with WFI. The column was initially pre-equilibrated with pre-equilibration buffer (20 mM Tris-HCl, pH 7.4), then equilibrated with equilibration buffer (20 mM Tris-HCl, 200 mM NaCl, pH 7.4), and once the pH and conductivity of the column were within specification, it was loaded with Triton-X 100 treated clarified harvest (HCCF). Each cycle of HCCF material was transferred from its viral inactivation hold tank directly to the column.

T1 sequence (P00742 other isoform, or with tags, fused parts or gaps limits assumed, chain 1 of 2): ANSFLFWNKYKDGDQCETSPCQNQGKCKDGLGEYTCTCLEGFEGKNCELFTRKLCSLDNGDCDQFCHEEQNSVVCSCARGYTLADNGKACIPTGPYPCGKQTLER
T1 sequence (P00742 235-488 S419A limits assumed, chain 2 of 2): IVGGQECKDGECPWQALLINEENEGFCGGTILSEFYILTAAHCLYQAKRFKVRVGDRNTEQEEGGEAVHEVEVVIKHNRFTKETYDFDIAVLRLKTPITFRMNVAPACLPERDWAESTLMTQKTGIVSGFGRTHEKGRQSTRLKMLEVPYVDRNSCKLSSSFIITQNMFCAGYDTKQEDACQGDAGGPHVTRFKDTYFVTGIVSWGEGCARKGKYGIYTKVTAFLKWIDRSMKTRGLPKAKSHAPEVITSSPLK

- binding result: binds
B1: soybean trypsin inhibitor (STI), Kunitz trypsin inhibitor (21 kDa; pI=4.5) extracted from whole soybean or flour (other, soybean (Glycine max), UniProt P01070 25-205, looked up)
chain: DFVLDNEGNPLENGGTYYILSDITAFGGIRAAPTGNERCPLTVVQSRNELDKGIGTIISSPYRIRFIAEGHPLSLKFDSFAVIMLCVGIPTEWSVVEDLPEGPAVKIGENKDAMDGWFRLERVSDDEFNNYKLVFCPQQAEDDKCGDIGISIDHDDGTRRLVVSKNKPLVVQFQKLDKESL
notes: also called STI ligand
